Positions count from the first letter of the chain named. Numbers in names are those of the source. Where “and” joins values, the source holds several entries; their conditions need not be identical. Equal values may be shown once.
Legend:
[1] = substrate: O=C(CO)[C@@H](O)[C@H](O)[C@H](O)COP(=O)(O)O; assay: Recombinant PFKL activity assay (relief of ATP inhibition); format: biochemical, human; details: other: PFKL wild type, pH 7.5, 225 μM ATP, 25.0 °C
From the text: (§1) Recombinant N-terminal His-tagged human PFKL (NP_002617), PFKM (NP_000280), and PFKP (NM_002627.4) were generated as described ([Webb et al., 2015], [2017]). Point mutants of PFK1 were generated using the QuikChange Lightning kit (Aligent).
(§2) His-tagged PFK1 was expressed and purified as described with slight modifications ([Webb et al., 2015], [2017]). Briefly, baculovirus was generated using the Bac-to-Bac Expression system (Invitrogen). PFK1 was expressed in 2-5 × 10^6 sf9 cells at a multiplicity of infection of two for 48 h. […] Protein was quantified using a Bradford Protein Assay kit (ThermoFisher Scientific), and aliquotes frozen in liquid nitrogen for storage at −80°C.
(§3) PFK1 activity was determined using the rate of FBP production via an auxiliary enzyme assay adapted to a 96-well format ([Brüser et al., 2012]; [Webb et al., 2015]). […] For assays containing FBP, the rate of ADP production was determined using the auxiliary enzymes pyruvate kinase (PK) and lactate dehydrogenase (LDH) (MilliporeSigma) in a buffer containing 250 μM phosphoenolpyruvic acid, […] NADH, 50 mM HEPES pH 7.5, 100 mM KCl, 1 mM DTT, and effector concentrations as described in the text. […] Absorbance at 340 nm was measured using a Varioskan LUX Multimode microplate reader (ThermoFisher). […]

[2] = target: the molecule itself; assay: cryo-EM structure; 9 uM purified PFKL with 1 mM ATP, 2 mM F6P and 50 uM NA-11 in 20 mM HEPES pH 7.5, 1 mM DTT, 500 uM ammonium sulfate, 5% glycerol, 100 uM EDTA; refinement focused on a single, masked tetramer
[3] = substrate: O=C(CO)[C@@H](O)[C@H](O)[C@H](O)COP(=O)(O)O; assay: Recombinant PFKL−pocket activity assay; format: biochemical, human; details: other: PFKL−pocket, pH 7.5, 225 μM ATP, 25.0 °C
From the text: as §1, §2, §3

[4] = substrate: O=C(CO)[C@@H](O)[C@H](O)[C@H](O)COP(=O)(O)O; assay: Recombinant PFKL−hook activity assay; format: biochemical, human; details: other: PFKL−hook, pH 7.5, 225 μM ATP, 25.0 °C
From the text: as §1, §2, §3

B1: phosphofructokinase-1 liver type (PFKL), human, recombinant N-terminal His-tagged (enzyme)
chain: MAAVDLEKLRASGAGKAIGVLTSGGDAQGMNAAVRAVTRMGIYVGAKVFLIYEGYEGLVEGGENIKQANWLSVSNIIQLGGTIIGSARCKAFTTREGRRAAAYNLVQHGITNLCVIGGDGSLTGANIFRSEWGSLLEELVAEGKISETTARTYSHLNIAGLVGSIDNDFCGTDMTIGTDSALHRIMEVIDAITTTAQSHQRTFVLEVMGRHCGYLALVSALASGADWLFIPEAPPEDGWENFMCERLGETRSRGSRLNIIIIAEGAIDRNGKPISSSYVKDLVVQRLGFDTRVTVLGHVQRGGTPSAFDRILSSKMGMEAVMALLEATPDTPACVVTLSGNQSVRLPLMECVQMTKEVQKAMDDKRFDEATQLRGGSFENNWNIYKLLAHQKPPKEKSNFSLAILNVGAPAAGMNAAVRSAVRTGISHGHTVYVVHDGFEGLAKGQVQEVGWHDVAGWLGRGGSMLGTKRTLPKGQLESIVENIRIYGIHALLVVGGFEAYEGVLQLVEARGRYEELCIVMCVIPATISNNVPGTDFSLGSDTAVNAAMESCDRIKQSASGTKRRVFIVETMGGYCGYLATVTGIAVGADAAYVFEDPFNIHDLKVNVEHMTEKMKTDIQRGLVLRNEKCHDYYTTEFLYNLYSSEGKGVFDCRTNVLGHLQQGGAPTPFDRNYGTKLGVKAMLWLSEKLREVYRKGRVFANAPDSACVIGLKKKAVAFSPVTELKKDTDFEHRMPREQWWLSLRLMLKMLAQYRISMAAYVSGELEHVTRRTLSMDKGF
notes: human phosphofructokinase-1 liver type (PFKL), NP_002617; Homotetramer; In cryo-EM it mostly formed stacked pairs of tetramers; The sample held ATP, F6P and the small molecule NA-11; also called PFK1 liver isoform; wild-type PFKL; source: Sf9 cells (baculovirus, Bac-to-Bac), purified (HisPur cobalt resin, desalting column)
- Km [1]: 1970 ± 240 µM
- stoichiometry N [2]: 4 and 8

B2: PFKL(K315R) (PFKL−pocket) (Homo sapiens; K315R) (protein)
chain: B1 chain with K315R
notes: made in house; host or cells: Sf9 insect cells (baculovirus)
- Km [3]: 2060 ± 120 µM

B3: PFKL(V545L, V582M) (PFKL−hook) (Homo sapiens; V545L/V582M) (protein)
chain: B1 chain with V545L, V582M
notes: as for B2
- Km [4]: 1200 ± 90 µM

— paper PMC8802628, “Selective activation of PFKL suppresses the phagocytic oxidative burst” (Cell, 2021)
